Measured values: patent US7341836B2, “Modified cyclic nucleotide gated ion channels” (The Regents of the University of Colorado, priority 2001, dated 2008)
Entries after “also recorded” stand apart in the source; their conditions may differ.

T1: rat olfactory CNG channel α subunit (Rattus norvegicus, UniProt Q00195, C460W/E583M)
T1 construct: expressed in transfected cells; host or cells: HEK-293 (adenovirus infection)
T1 sequence (Q00195 1-664 C460W/E583M): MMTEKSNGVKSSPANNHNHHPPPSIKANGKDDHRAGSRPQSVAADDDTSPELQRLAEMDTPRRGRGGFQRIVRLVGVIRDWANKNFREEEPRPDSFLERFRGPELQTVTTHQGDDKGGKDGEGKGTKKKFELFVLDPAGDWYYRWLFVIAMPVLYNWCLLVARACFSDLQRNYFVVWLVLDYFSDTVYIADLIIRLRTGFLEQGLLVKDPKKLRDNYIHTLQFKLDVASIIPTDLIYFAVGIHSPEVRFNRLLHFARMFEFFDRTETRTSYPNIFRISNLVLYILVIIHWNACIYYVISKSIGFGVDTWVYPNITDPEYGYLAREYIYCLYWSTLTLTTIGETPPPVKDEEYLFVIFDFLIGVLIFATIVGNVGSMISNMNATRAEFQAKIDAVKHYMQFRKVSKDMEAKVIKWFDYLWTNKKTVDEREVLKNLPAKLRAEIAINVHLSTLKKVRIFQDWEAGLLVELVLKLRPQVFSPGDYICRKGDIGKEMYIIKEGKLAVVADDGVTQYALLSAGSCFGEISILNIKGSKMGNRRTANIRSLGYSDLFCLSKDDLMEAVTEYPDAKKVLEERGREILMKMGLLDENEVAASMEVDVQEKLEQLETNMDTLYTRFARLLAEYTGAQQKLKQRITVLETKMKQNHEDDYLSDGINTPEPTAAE


Columns and labels:
[1] = system: rat olfactory CNG channel α subunit; test: Excised inside-out patch recordings, cyclic nucleotide dose-response of CNG channel constructs; type: biochemical; conditions: for Imax^cGMP/Imax^cAMP: current at saturating cGMP divided by current at saturating cAMP
Method: (§1) As described in greater detail herein, the effects of modifications to CNG channels were assessed using the Hill equation, I/Imax=[cNMP]^N/([cNMP]^N+K1/2^N), where I/Imax is the fraction of maximal current, cNMP represents cyclic nucleotide, K1/2 is the concentration that gives half-maximal current, and N is the Hill coefficient, an index of cooperativity. I/Imax^cGMP/Imax^cAMP is the current induced by saturating cGMP divided by the current induced by saturating cAMP. Data (mean±standard deviation of three experiments) were obtained from excised membrane patches using standard patch clamp techniques.
(§2) To assess the cyclic nucleotide sensitivity of different CNG channel constructs, excised, inside-out patch recordings were made at room temperature (20-21° C.) using an Axopatch-200A patch clamp amplifier (Axon Instruments Inc.). Pipettes were pulled from borosilicate glass and heat polished. Pipettes were lowered onto the cells and gigaohm seals were formed. Patches were excised by shearing cells from the pipette with a jet of liquid. Ionic currents were elicited by 250 ms pulses to membrane potentials of +50 and −50 mV from a holding potential of 0 mV. Current records were sampled at five times the filter setting and stored on an IBM compatible computer. Records were corrected for errors due to series resistance (pipette resistance was 4.1 ±0.1 MΩ). Both the pipette and bath solutions contained (mM): 130 NaCl, 2 HEPES, 0.02 EDTA, and 1 EGTA, pH 7.6. Cyclic nucleotide-induced currents were obtained from the difference between currents in the presence and absence of cyclic nucleotides. Dose response curves for cAMP and cGMP were obtained at +50 and −50 mV in the same patch. The effects of the modifications were assessed using the Hill equation, I/Imax=[cNMP]^N/([cNMP]^N+K1/2^N), where I/Imax is the fraction of maximal current, cNMP represents cyclic nucleotide, K1/2 is the concentration that gives half-maximal current, and N is the Hill coefficient, an index of cooperativity. K1/2 and N for cAMP were 36±5 μM, 10±2 μM, 1.0±0.3 μM, and […] for WT, E583M, C460/E583M, and Δ61-90/C460W/E583M channels, respectively (See, Rich et al., J. Gen. Physiol. [2001], supra).
(§3) The cyclic nucleotide sensitivity of the C460W/E583M CNG channel was assessed in excised, inside-out patches as known in the art (See, Rich et al. [2001], supra). K1/2 and N were 1.1±0.3 μM and 2.1±0.4 at +50 mV; and 1.0±0.3 μM and 2.0 ±0.3 at −50 mV (n=11). With these values, the cAMP concentration could be calculated from currents measured in perforated patch experiments (Rich et al. Proc. Natl. Acad. Sci. [2001], supra).

[2] = system: HEK-293 cells expressing C460W/E583M channels; test: Single-cell local cAMP measurement, perforated patch or whole cell currents through C460W/E583M channels; type: cell-based, human; conditions: 1 μM PGE1
Method: Single-cell cAMP measurements were made using either the perforated patch or whole cell patch clamp technique (Rich et al. [2000], supra). In the perforated patch configuration, the pore forming antibiotic nystatin was added to the pipette solution to gain electrical access to the cell's interior while retaining divalent cations and larger molecules like cAMP in the cell. Recordings were made using an Axopatch-200A patch clamp amplifier (Axon Instruments). Pipette resistance was limited to 5 ΩM and averaged 3.4±0.5 ΩM (measurements provided herein are expressed as mean±standard deviation). In the perforated patch configuration, a steady access resistance was obtained 5-15 minutes following seal formation. […] These quantities were monitored throughout the experiments to ensure stable electrical access was maintained. […] The time to exchange the extracellular solution was measured by applying a 140 mM KCl solution to a depolarized cell (+50 mV), and monitoring changes in current through endogenous voltage-gated K^+ channels; for each experiment, it was less than 60 ms. […] In most of these experiments, the pipette solution also contained 1 mM cAMP; at the end of the experiment the maximal cAMP-induced current could be measured by rupturing the cell membrane at the tip of the pipette with suction, allowing saturating cAMP to diffuse to the channels (See, Rich et al. [2000], supra). […]

[3] = system: HEK-293 cells expressing C460W/E583M channels; test: PGE1-induced cAMP responses in cell populations (Ca2+ influx through C460W/E583M channels); type: cell-based, human; conditions: 100 nM PGE1
Text: In this Example, experiments conducted to detect cAMP levels in cells are described. Changes in cyclic AMP concentrations in response to PGE1 stimulation were monitored in HEK-293 cells by measuring Ca^2+ influx through C460W/E583M CNG channels (See, Rich et al. [2001], supra). HEK-293 cells express a variety of extracellular receptors including prostanoid receptors (Thomas and Hoffman, Mol. Pharmacol., 49:907-914 [1996]), and the cAMP-specific PDE type IV (Rich et al. [2001], supra; and Hoffmann et al., EMBO J., 18:893-903 [1999]). Based on PCR analysis, these cells also appear to express AC types II, […], VI, and VII, (Hellevuo et al., Biochem. Biophys. Res. Commun., 192:311-318 [1993]). C460W/E583M channels were expressed heterologously using an adenovirus construct (See, Rich et al. [2001], supra). The Ca^2+ permeability of the channel was used to detect changes in local cAMP concentration; the fluorescent indicator fura-2 was used to monitor Ca^2+ entry. With this approach, incremental changes in cAMP concentration are readily detected as changes in relative Ca^2+ influx rates through C460W/E583M channels (See, Rich et al., [2001], supra).
Transient responses were observed over a large range of PGE1 concentrations, from 0.01 to 10 μM (FIG. 17, Panel A). […] The decline was unlikely to result primarily from a reduction in AC activity (e.g., receptor desensitization), because of the sustained accumulation of total cellular cAMP in the presence of IBMX (See, FIG. 16, Panel B). To verify this, 100 μM IBMX was added at various times after PGE1 application.
To test whether PGE1 did indeed increase the total PDE activity, 100 nM PGE1 were added at various times after the initial application of 100 nM PGE1 (a subsaturating concentration). There was a negligible response to the subsequent addition of PGE1, even after 50 min (FIG. 17, Panel D). Taken together, the results of the experiments shown in FIG. 17, Panels C and D argue that the cAMP transient is due to an initial increase in AC activity, followed by a more profound increase in PDE activity. […] As indicated herein, these processes are crucial for the generation of spatially and temporally distinct cAMP signals.

[4] = biological target: T1, rat olfactory CNG channel α subunit; test: Excised inside-out patch recordings, cyclic nucleotide dose-response of CNG channel constructs; type: biochemical; conditions: for N: Hill coefficient, n=11, Example 9
Method: as §1, §2, §3

[5] = system: HEK-293 cells expressing CNG channels; test: Forskolin-induced cAMP accumulation monitored by Ca2+ influx (fura-2) through expressed CNG channels; type: cell-based, human; conditions: 100 μM IBMX; forskolin 0-50 μM
Method: Next, experiments were conducted to assess the ability of each channel construct to detect increases in local cAMP concentration. Changes in cAMP concentration were detected using fura-2 to monitor Ca^2+ influx through CNG channels, as described in the Examples. Ca^2+ influx induced by different concentrations of forskolin, an AC activator, in the presence of 100 μM IBMX, a nonselective PDE inhibitor was measured. This approach allowed comparisons to be made between the cAMP sensitivities of the different channels to changes in cAMP, regardless of variations in expression levels between experiments. In HEK-293 cells expressing the WT channel, addition of forskolin was followed by a brief delay and an increase in Ca^2+ influx (See, FIG. 7, Panel A). The delay decreased and the rate of Ca^2+ influx increased in a dose-dependent manner. Neither effect was saturated at 50 μM forskolin. In cells expressing the E583M channel, addition of forskolin was also followed by a brief delay and an increase in Ca^2+ influx (FIG. 7, Panel B). As with the WT channel, the delay and the initial rate of Ca^2+ influx were dose-dependent. […] In cells expressing the Δ61-90/C460W/E583M channel, addition of forskolin caused similar increases in Ca^2+ influx as the E583M channel, including saturation of the delay and rate of influx at 20 μM (compare FIG. 7, Panel B with FIG. 7, Panel D). The increased response of the modified channels to forskolin treatment is consistent with the apparent cAMP affinities measured in excised patches in the absence of Ca^2+-CaM (C460W/E583M>E583M˜Δ61-90/C460W/E583>WT channels). There are several factors that may have contributed to the apparent lack of a Ca^2+-CaM effect on the channels.
Briefly, HEK-293 were maintained in MEM (Life Technologies Inc.) supplemented with 26.2 mM NaHCO3, 10% (v/v) fetal bovine serum (Gemini), penicillin (50 μg/mL), and streptomycin ([…]), pH 7.0, at 37° C. in a humidified atmosphere of 95% air and 5% CO2. Cells were plated at ˜60% confluence in 100 mm culture dishes twenty-four hours prior to infection with the CNG-channel-encoding adenovirus constructs (multiplicity of infection=10 plaque forming units per cell). […] Twenty-four hours post-infection cells were detached with phosphate-buffered saline containing 0.03% EDTA, resuspended in serum-containing medium, and assayed within 12 hours.

Molecule	effect on CNG channel activity in excised membrane patches ([1]; 100 μM IBMX, 1 μM PGE1)	average amplitude of the cAMP signal ([2]; five cells) [µM]	width at half height of the cAMP response ([2]; perforated patch, −20 mV, six cells) [s]	slopes of the initial PGE1-induced responses [3] [s⁻¹]	lower K1/2 for cAMP than the E583M channel [4] [fold]	N ([4]; +50 mV)	N ([4]; −50 mV)	Imax^cGMP/Imax^cAMP ([1]; +50 mV)	Imax^cGMP/Imax^cAMP ([1]; −50 mV)	forskolin concentration at which delay and rate of Ca2+ influx saturated [5] [µM]
CCCCC[C@H](O)/C=C/[C@H]1[C@H](O)CC(=O)[C@@H]1CCCCCCC(=O)O [PGE1, prostaglandin E1]	no direct effect on channels; also recorded: no change in current was observed	0.7 ± 0.4	87 ± 53	0.0038 ± 0.0003	–	–	–	–	–	–
C460W/E583M: modified rat olfactory cyclic nucleotide-gated ion channel containing the C460W/E583M mutation, SEQ ID NO:6 (protein, listed as Rattus norvegicus) MMTEKSNGVKSSPANNHNHHPPPSIKANGKDDHRAGSRPQSVAADDDTSPELQRLAEMDTPRRGRGGFQRIVRLVGVIRDWANKNFREEEPRPDSFLERFRGPELQTVTTHQGDDKGGKDGEGKGTKKKFELFVLDPAGDWYYRWLFVIAMPVLYNWCLLVARACFSDLQRNYFVVWLVLDYFSDTVYIADLIIRLRTGFLEQGLLVKDPKKLRDNYIHTLQFKLDVASIIPTDLIYFAVGIHSPEVRFNRLLHFARMFEFFDRTETRTSYPNIFRISNLVLYILVIIHWNACIYYVISKSIGFGVDTWVYPNITDPEYGYLAREYIYCLYWSTLTLTTIGETPPPVKDEEYLFVIFDFLIGVLIFATIVGNVGSMISNMNATRAEFQAKIDAVKHYMQFRKVSKDMEAKVIKWFDYLWTNKKTVDEREVLKNLPAKLRAEIAINVHLSTLKKVRIFQDWEAGLLVELVLKLRPQVFSPGDYICRKGDIGKEMYIIKEGKLAVVADDGVTQYALLSAGSCFGEISILNIKGSKMGNRRTANIRSLGYSDLFCLSKDDLMEAVTEYPDAKKVLEERGREILMKMGLLDENEVAASMEVDVQEKLEQLETNMDTLYTRFARLLAEYTGAQQKLKQRITVLETKMKQNHEDDYLSDGINTPEPTAAE	–	–	–	–	~10	2.1±0.4	2.0 ±0.3	0.84 ± 0.10	0.50 ± 0.10	5
